Measurements from PMC314469, “Protein Interaction Networks by Proteome Peptide Scanning” (PLoS Biology, 2004).

T1: Boi2 SH3 (BOI2_YEAST), P39969
T1 chain: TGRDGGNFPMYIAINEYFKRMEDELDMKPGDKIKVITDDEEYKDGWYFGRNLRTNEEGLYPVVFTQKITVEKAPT

T2: Boi1 SH3 (BOI1_YEAST), P38041
T2 chain: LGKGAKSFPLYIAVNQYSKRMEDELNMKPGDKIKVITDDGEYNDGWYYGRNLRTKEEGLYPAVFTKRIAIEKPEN

T3: Rvs167 SH3 (RV167_YEAST), P39743
T3 chain: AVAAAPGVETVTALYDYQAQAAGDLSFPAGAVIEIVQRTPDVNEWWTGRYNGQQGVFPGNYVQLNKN

T4: Yhr016c SH3 (YSC84_YEAST), P32793
T4 chain: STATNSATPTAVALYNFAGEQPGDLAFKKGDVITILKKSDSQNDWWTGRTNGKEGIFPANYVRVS

T5: Yfr024 SH3 (LSB3_YEAST), P43603
T5 chain: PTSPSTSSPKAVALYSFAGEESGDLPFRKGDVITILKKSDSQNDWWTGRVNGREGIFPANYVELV


Legend:
Test in all cases: SPOT array
[1] = molecular target: T1, Boi2 SH3 (BOI2_YEAST), P39969
[2] = molecular target: T2, Boi1 SH3 (BOI1_YEAST), P38041
[3] = molecular target: T3, Rvs167 SH3 (RV167_YEAST), P39743
[4] = molecular target: T4, Yhr016c SH3 (YSC84_YEAST), P32793
[5] = molecular target: T5, Yfr024 SH3 (LSB3_YEAST), P43603

| Binder | normalised SPOT signal, Boehringer light units (BLU); mean over the file's lines of this peptide [1] | normalised SPOT signal, Boehringer light units (BLU); mean over the file's lines of this peptide [2] | normalised SPOT signal, Boehringer light units (BLU); mean over the file's lines of this peptide [3] | normalised SPOT signal, Boehringer light units (BLU); mean over the file's lines of this peptide [4] | normalised SPOT signal, Boehringer light units (BLU); mean over the file's lines of this peptide [5] |
| --- | --- | --- | --- | --- | --- |
| GRKPKDPSKPRQML [YML065W 331-344] | 42.2 | 147 | 31.8 | 160 | 268 |
| GYDPTDPSRPRINE [YDR093W 1469-1482] | 34.7 | 98.5 | 71.5 | 257 | -0 |
| GSSPVSPDKRPSWK [YGL156W 66-79] | 18.6 | 69.6 | 50.3 | 493 | 223 |
| GRHPDMPTRVKNAY [YDR188W 219-232] | 44.5 | 104 | 148 | 152 | 768 |
| GTPPTTPLRTAQGI [YOR025W 379-392] | 36 | 97.3 | 197 | 2770 | 5740 |
| GWKPLRPIKLISWD [YJR126C 478-491] | 236 | 59.3 | 286 | 407 | 12000 |
| GSNPDLPNKSNLKF [YGR080W 307-320] | 38.5 | 163 | 26.2 | 180 | 637 |
| HGVPVVPSREVTIN [YER014W 440-453] | 33.6 | 140 | 82 | 765 | 555 |
| GSEPIDPSKLEFAR [YLR191W 299-312] | 25.3 | 57.5 | 33 | 37.9 | 53.6 |
| HGLPYKPSKLIRIF [YLR224W 329-342] | 60.3 | 80.3 | 67.7 | 222 | 747 |
| GPPPAMPARPTATT [YBL007C 192-205] | 140 | 86.8 | 83.3 | 1070 | 11500 |
| GRIPQLPNRDEMTA [YCR073C 1268-1281] | 54.1 | 78.4 | 11900 | 20900 | 11500 |
| GVYPSRPEKTYDYS [YBR026C 71-84] | 47.3 | 111 | 12.9 | 113 | 470 |
| HEHPSGPLKKLFSD [YIL002C 144-157] | -0 | 1.6 | 13.3 | -0 | 167 |
| HLPPPPPPRAQQQQ [YOR329C 664-677] | 15.5 | 61 | 1900 | 1630 | 6510 |
| GVFPNSPVKQTTII [YPL023C 580-593] | 97.9 | 64.4 | 4 | 116 | 269 |
| HQIPSAPQRLVSII [YMR136W 114-127] | 18.8 | 86.7 | 16 | 216 | 572 |
| HNSPVAPNRYAANL [YBR038W 84-97] | 33.8 | 157 | 87.3 | 244 | 155 |
| GYDPTDPNRPKVTK [YER166W 1426-1439] | 52.4 | 108 | 35.5 | 69.3 | 54.7 |
| GVPPNFPQRMMPPP [YKL204W 471-484] | 84.6 | 58.2 | 58.8 | 283 | 1870 |
| HPDPADPAKELELN [YDR037W 377-390] | 12.4 | 72 | 50 | 161 | -0 |
| HLDPEAPDKLLENS [YOR301W 109-122] | 62.5 | 161 | 29.1 | 329 | 35.4 |
